Laboratory results published in article PMC10981135.
Where two headings read alike, the source gives them in different places.

Columns and labels:
Assay in all cases: BLI
PfAlba6 Y28A [1] = target: T1, PfAlba6 Y28A (Plasmodium falciparum 3D7, UniProt Q8I617 1-96, Y28A)
T1 sequence: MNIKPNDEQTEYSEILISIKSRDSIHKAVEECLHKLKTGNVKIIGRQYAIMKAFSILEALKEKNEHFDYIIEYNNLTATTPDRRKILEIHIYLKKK

PfAlba6 = target: T2, PfAlba6 (Plasmodium falciparum 3D7, UniProt Q8I617)
T2 sequence: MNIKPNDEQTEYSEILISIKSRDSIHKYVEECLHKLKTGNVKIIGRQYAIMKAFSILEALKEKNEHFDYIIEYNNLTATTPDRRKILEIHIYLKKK

PfAlba6 Y28A [2] = target: T1, PfAlba6 Y28A; remark: listed apart in the source

B1: 28 bp dsDNA (C28) (dsDNA)
DNA 1: TGGCGAAAGGGGGTTGTGCTGCAAGGCG
DNA 2: CGCCTTGCAGCACAACCCCCTTTCGCCA
- Kd (PfAlba6 Y28A [1]): 10 ± 0.9 nM
- Kd (PfAlba6): 10 ± 0.37 nM
- Kd (PfAlba6 Y28A [2]): 12.1 ± 0.83 nM
